{"source": "the nanobody polyreactivity screen of Harvey et al. (2022)", "data": [{"assay": "yeast display, Sf9 membrane polyspecificity reagent, FACS + sequencing; frameworks hold sequencing errors", "in_short": "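A nanobody's polyreactivity label depends on the gate it was sorted from. Yeast display cells were stained with 10% biotinylated, detergent-solubilized Sf9 membrane reagent for 1 hour at 4 °C, enriched on streptavidin microbeads and sorted by FACS. The low and high (top ~1%) gates were set on anti-HA fluorescence for expression and streptavidin fluorescence for reagent binding.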", "values": [{"sequence": "QVQLVESGGGLVQAGGSLRLSCAASGLIFYFYVMGWYRQAPGKERELVAGIDTGSSTNYADSVKGRFTISRDNAKNTVYLQMNSLKPEDTAVYYCAADSVSKYGSDYWGQGTQVTVSS", "polyreactivity (PSR sort gate)": "low polyreactivity"}, {"sequence": "QVQLVESGGGLVQAGGSLRLSCAASGLIFYGNAMGWYREAPGKERELVAAISRRGGRTYYADSVKGRFTISRDNAKKSVYLQMHSLKPEDTAVYYCAAGVPKNGQAGYDYWGQGTQVTVSS", "polyreactivity (PSR sort gate)": "high polyreactivity"}, {"sequence": "QVQLVESGGGLVQAGGSLRLSCAASGLIFYHNAMRWYRQAPGKERELVAAMTASGGSTYYADSVKGRFTISRDNAKNTVYLQMNSLKPEDTAVYYCAADGPLDSDLDYWGQGTQVTVSS", "polyreactivity (PSR sort gate)": "low polyreactivity"}, {"sequence": "QVQLVESGGGLVQAGGSLRLSCAASGLIFYKNAMGWYRQAPGKEREFVAAISRSGASTYYADSVKARFTISRDNAKNTVYLQMNSLKPEDTAVYYCAARAGANYRMDYWGQGTQVTVSS", "polyreactivity (PSR sort gate)": "high polyreactivity"}, {"sequence": "QVQLVESGGGLVQAGGSLRLSCAASGLIFYLYAMGWYRQAPGKEREFVAAITTSGGSTHYADSVKGRFTISRDNAKNTVYLQMNSLKPEDTAVYYCAADDYFHGPGLEFDYWGQGTQVTVSS", "polyreactivity (PSR sort gate)": "low polyreactivity"}, {"sequence": "QVQLVESGGGLVQAGGSLRLSCAASGLIFYPYAMGWYRQAPGKERELVAAITSGDSTYYADSVKGRFTISRDNAKNTVYLQMNSLKPEDTAVYYCNADASYYYYHSDTVYGFDYWGQGTQVTVSS", "polyreactivity (PSR sort gate)": "low polyreactivity"}, {"sequence": "QVQLVESGGGLVQAGGSLRLSCAASGLIFYPYAMGWYRQAPGKERELVAGISSSGDSTYYADSVKGRFTISRDNAKNTVYLQMNSLKPEDNAVYYCNTGWDPYGYDYWGQGTQVTVSS", "polyreactivity (PSR sort gate)": "low polyreactivity"}, {"sequence": "QVQLVESGGGLVQAGGSLRLSCAASGLIFYQYAMGWYRQAPGKERELVAAINWSGGSTYYADSVKGRFTISRDNAKNTVYLQMNSLKPEDTAVYYCAADTAFRFALTRYRPMDYWGQGTQVTVSS", "polyreactivity (PSR sort gate)": "high polyreactivity"}, {"sequence": "QVQLVESGGGLVQAGGSLRLSCAASGLIFYRNAMGRTRQAPGKERELVAAISASGGRTYYADSVKGRFTISRDTEKNTVYLPMNSLKPEDTAVYYCAAKSLLLSMDYWGQGTQVTVSS", "polyreactivity (PSR sort gate)": "high polyreactivity"}, {"sequence": "QVQLVESGGGLVQAGGSLRLSCAASGLIFYRYAMGTTRQAPGKERELVATISGGGRTYYADSVKGRFTISRDNAKNTVYLQMNSLKPEDTAVYYCNADRQWYSIGSWEYDYWGQGTQVTVSS", "polyreactivity (PSR sort gate)": "high polyreactivity"}, {"sequence": "QVQLVESGGGLVQAGGSLRLSCAASGLIFYRYAMGWYRQAPGKERELVAAITASGGTTYYADSVKGRFTISRDNAKNTVYLQMNSLKPEDTAVYDCASPYTYWRRIGVDYDYWGQGTQVTVSS", "polyreactivity (PSR sort gate)": "high polyreactivity"}, {"sequence": "QVQLVESGGGLVQAGGSLRLSCAASGLIFYRYAMGWYRQAPGTEREMVAAITTNGARTYYADSVKGRFTISRDNAKNTVYLEMNSLKPEDTAVYYCAAYGAGKFWADHNYWGQGTQVTVSS", "polyreactivity (PSR sort gate)": "high polyreactivity"}, {"sequence": "QVQLVESGGGLVQAGGSLRLSCAASGLIFYSYAMGWYRQAPGKERELVAAITGGGSTNYADSVKGRFTISRDNAKNTVYLQMNSLKPEDTAVYYCAAAFTLRKYDYWGQGTQVTVSS", "polyreactivity (PSR sort gate)": "low polyreactivity"}, {"sequence": "QVQLVESGGGLVQAGGSLRLSCAASGLIFYYYAKGWYRQAPGKEREFVAAISRSGGITRYADSVKGRFTISRDNAKITVYLQMNSLKPEDTAVYYCAADDYPLTYDDYYWGQGTQVTVSS", "polyreactivity (PSR sort gate)": "high polyreactivity"}, {"sequence": "QVQLVESGGGLVQAGGSLRLSCAASGLIFYYYSMGWYRQAPGKERELVAAISGGGSTYYADSVKGRFTISRDNAKNTVYLQMNSLKPEDTAVYYCAADTRTSYYKDDYDYWGQGTQVTVSS", "polyreactivity (PSR sort gate)": "low polyreactivity"}, {"sequence": "QVQLVESGGGLVQAGGSLRLSCAASGLIFYYYTMGWYIQAPGKVRELVAAISSAGSTYYADSVKGRFTISRDNAKNTVYLQMNSLKPEDTEVYYCATRSQAQYTRYYGYRQFYYWGQGTQVTVSS", "polyreactivity (PSR sort gate)": "high polyreactivity"}, {"sequence": "QVQLVESGGGLVQAGGSLRLSCAASGLIFYYYVKGWYRQAPGKERELVAAISVIGDSTYYADSVKGRFTISRDNAKNTVYLQMNSLKPEDTAVYYCNADPWRWDRESRYEYWGQGTQVSVSS", "polyreactivity (PSR sort gate)": "high polyreactivity"}, {"sequence": "QVQLVESGGGLVQAGGSLRLSCAASGLIIGVYAMGWYRQAPGKERELVAAITDGGSTYYADSVKGRFTISRDNAKNTVYLQMNSLKPEDTAVYYCNKLYTRVGFTFEYWGQGTQVTVSS", "polyreactivity (PSR sort gate)": "low polyreactivity"}, {"sequence": "QVQLVESGGGLVQAGGSLRLSCAASGLIILPNAMGWYRQAPGKDRELVAAISSYDGSTYYADSVKGRFTISRDSAKNTVYLQMNSLKPEDTAVYYCAAGYYFQVEPDLVYIYSYEYWGQGTQVTVSS", "polyreactivity (PSR sort gate)": "low polyreactivity"}, {"sequence": "QVQLVESGGGLVQAGGSLRLSCAASGLIIRNYAMGWYRPAPGKERELVAAISYNGGSTYYADSVKGRFTISRDNAKNTVYLQMNSLKPEDTAVYYCAAYYGVGYRRYYYWGQGTQVTVSS", "polyreactivity (PSR sort gate)": "high polyreactivity"}, {"sequence": "QVQLVESGGGLVQAGGSLRLSCAASGLIIRWNAMGWYRQAPAKERELVAAINRGGSTYYADSVKGRFTISRDNAKNTVYLQMTSLKPEDTAVYYCAVGYAHSSNRRYYYKKTHGYWGQGTQVTVSS", "polyreactivity (PSR sort gate)": "low polyreactivity"}, {"sequence": "QVQLVESGGGLVQAGGSLRLSCAASGLIIWLYTMGWYRQAPGKERELVAAIDWSGGSTYYADSVKGRFTISRDNAKNTDYLQMNSLKPEDTAVYYCAADPEPSYRFDYCGQGTQVTVSS", "polyreactivity (PSR sort gate)": "low polyreactivity"}, {"sequence": "QVQLVESGGGLVQAGGSLRLSCAASGLILPDYAMGWYRQAPGKERELVAAISQRGGSTYYADSVKGRFTISRDNAKNSVYLQMYSLKPEDTAVYYCNALFRLRAYAEMDYWGQGTQVTVSS", "polyreactivity (PSR sort gate)": "high polyreactivity"}, {"sequence": "QVQLVESGGGLVQAGGSLRLSCAASGLILRGYAMGWYRQAPGKERELVAAISGSGGRTYYADSVKGRFTISRDNAKNTVYLQMNSLKPEDTAVYYCNKGGIREYDYWGQGTQVTVSS", "polyreactivity (PSR sort gate)": "high polyreactivity"}, {"sequence": "QVQLVESGGGLVQAGGSLRLSCAASGLILSSNAMGWYRQAPGKERELVAAITWDGDRTYADSVKGRFTISRDNAKNTVYLQMNSLKPEDTAVYYCAAPSYVSYDSEFGYWGQGTQVTVSS", "polyreactivity (PSR sort gate)": "low polyreactivity"}, {"sequence": "QVQLVESGGGLVQAGGSLRLSCAASGLILSSNAMGWYRQAPGKERELVATISWSGDSTYYADSVKGRFTISRDNAKNTVYLQMNSLKPEDTAVYDCNADHFQWGAGYDYWGQGTQVTVSS", "polyreactivity (PSR sort gate)": "low polyreactivity"}, {"sequence": "QVQLVESGGGLVQAGGSLRLSCAASGLILYHYAMGWYRQAPGKERELVAAISRSGGRTSYADSVKGRFTISRDNAKNTVYLQMNSLKPEDTAVFYCAAEKVGTRPSRDYDYWGQGTQVTVSS", "polyreactivity (PSR sort gate)": "high polyreactivity"}, {"sequence": "QVQLVESGGGLVQAGGSLRLSCAASGLIRYTYAMGWYRQAPGKERELVAAINSGGRTYYADSVKGRFTISRDNAKNTVYLQMNSLKPEYTAVYSCAADYGSRVRGFNYWGQGTQVTVSS", "polyreactivity (PSR sort gate)": "low polyreactivity"}, {"sequence": "QVQLVESGGGLVQAGGSLRLSCAASGLISESYAMGWYRQAPGKETELVAAISSGGSTYYADSVKGRFTISRDNAKNTVYLQMNSLNPEDTAVYFCNATGYKYNYGHAYYYAVDYWGQGTQVTVSS", "polyreactivity (PSR sort gate)": "low polyreactivity"}, {"sequence": "QVQLVESGGGLVQAGGSLRLSCAASGLISHNNAMGWYRQAPGKEREFVAAITTTGSSTYYADSVKGRFTISRDNEKNTVYLQMNSLKPEDTAVYYCAAESVPSRSEMDYWGQGTQVTVSS", "polyreactivity (PSR sort gate)": "low polyreactivity"}, {"sequence": "QVQLVESGGGLVQAGGSLRLSCAASGLISRRNAMGWYRQAPGKERELVAAISTGSSTNYADSVKGRFTISRDNAKNTVYLQMNSLKPEDTAVYYCAATQYWWSTLGIRDDYWGQGTQVTVSS", "polyreactivity (PSR sort gate)": "low polyreactivity"}, {"sequence": "QVQLVESGGGLVQAGGSLRLSCAASGLIVQVYDMGWYRQAPGKEMELVAAISSGSNTNYADSVKGRFTISRDNAKNTVYLLMNSLKPEDTAVYYCAASWGYGALTPDMGYWGQGTQVTVSA", "polyreactivity (PSR sort gate)": "low polyreactivity"}, {"sequence": "QVQLVESGGGLVQAGGSLRLSCAASGLIYTPYAMGWYRQAPGKERELVAAINYGGSRTYYADSVKGRFTISRDNAKNTVYLQMNSLKQEDTAVYYCNKPGNYVWRRSWDFDYWGQGTQVTVSW", "polyreactivity (PSR sort gate)": "high polyreactivity"}, {"sequence": "QVQLVESGGGLVQAGGSLRLSCAASGLNFGRNAIGWYRQAPGKERELVAAISLSGGRTSYADSVKGRFTISRDNEQNTVYLQMNSVKPEDTAFYFCASRSDVYTHDYWGQGTQVTVSS", "polyreactivity (PSR sort gate)": "high polyreactivity"}, {"sequence": "QVQLVESGGGLVQAGGSLRLSCAASGLNFSYYVMGWYRQAPGKERELVATITYSGGSTYYADSVKGRFTISRDNAKNTVYLQMNSLKPEDTAVYYFNADTGYVYSEYEYWGQGTQVTVSS", "polyreactivity (PSR sort gate)": "high polyreactivity"}, {"sequence": "QVQLVESGGGLVQAGGSLRLSCAASGLPFYQYAMGWYRQAPGKERELVAGISSGGSTKYADSVKGRFTISRDNAKNTVYFQMNSLKPEDTAVYYCAARFYAFRKGYYYWGQGTQVTVSS", "polyreactivity (PSR sort gate)": "high polyreactivity"}, {"sequence": "QVQLVESGGGLVQAGGSLRLSCAASGLSFLYAMGWYRHAPGKERELVAAISNGGSTYYADSVKGRFTISRDNAKNTDYLQMNSLKPEDTAVYYCAAAVTGSYASDYWGQGTQVTVSS", "polyreactivity (PSR sort gate)": "high polyreactivity"}, {"sequence": "QVQLVESGGGLVQAGGSLRLSCAASGLSFSVYAMGWSRQAPGTERELVASIDLSGGNTYYADSVKGRFTISRDNAKNTVYLQMNSLKPEDTAVYYCAKYNPYYYSFSVWDGGDYWGQGTQVTVSS", "polyreactivity (PSR sort gate)": "low polyreactivity"}, {"sequence": "QVQLVESGGGLVQAGGSLRLSCAASGLSFSVYAMGWYRQAPGKERELVAAITRNGGSTYYADSVKGRFTISRDTAKNTVYLQMNSLKPEDSAVYYCAAVASSKLYDYWGQGTQVTVSS", "polyreactivity (PSR sort gate)": "low polyreactivity"}, {"sequence": "QVQLVESGGGLVQAGGSLRLSCAASGLSFTFGYAMGWYRQAPGKERELVASISSSGGNTYYADSVKGRFTISRDNAKNTVYLQMNSLKPEDTAVYYCAVYSHRRNMNYWGQGTQVTVSS", "polyreactivity (PSR sort gate)": "high polyreactivity"}, {"sequence": "QVQLVESGGGLVQAGGSLRLSCAASGLTFAWNDMGWYRQAPGKERELVAAISIIGTTYYADSVKGRFTISRDNAKNTVYLQMNSLKREDTAVYYCAKTGFLGLRQYGYWGQGTQVTVSS", "polyreactivity (PSR sort gate)": "high polyreactivity"}, {"sequence": "QVQLVESGGGLVQAGGSLRLSCAASGLTFAWYAMGWYRPAPGKERELVATITSGGSTNYADSVKGRFTISRDNAKNTVYLQMNSLKPEDTAVYYCNADYIYYGTTYEYWGQGTQVTVSS", "polyreactivity (PSR sort gate)": "low polyreactivity"}, {"sequence": "QVQLVESGGGLVQAGGSLRLSCAASGLTFAWYTMGWYRQAPGKERELVADIDQSGSTYYADSVKGRFTISRDNAKNTVYLQMNSLKPEDTAVYYCNAYWSNFLYPFDYWGQGTQVTVSS", "polyreactivity (PSR sort gate)": "high polyreactivity"}]}]}
